{
  "source": "patent US20250051463A1",
  "about": "(AstraZeneca / MedImmune, published 2025)",
  "key": {"[1]": {"target": "T1, human IL3Rα (CD123), sample in solution for biolayer interferometry (human, UniProt P26951 19-305, limits assumed)", "T1 construct": "Soluble analyte in the Octet assay; also called hIL3-Rα; hIL3Rα", "T1 sequence (looked up)": "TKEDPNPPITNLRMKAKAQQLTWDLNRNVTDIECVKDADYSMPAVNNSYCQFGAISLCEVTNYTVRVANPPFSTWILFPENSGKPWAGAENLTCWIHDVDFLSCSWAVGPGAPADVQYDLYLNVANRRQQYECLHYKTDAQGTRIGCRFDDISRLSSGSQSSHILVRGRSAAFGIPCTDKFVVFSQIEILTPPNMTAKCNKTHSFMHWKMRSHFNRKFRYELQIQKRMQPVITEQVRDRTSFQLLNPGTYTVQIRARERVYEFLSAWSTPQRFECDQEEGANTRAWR", "assay": "biolayer interferometry (Octet RED384), antibody on AHC sensor, hIL3-Rα 10-0.16 µg/mL in solution, 1:1 fit", "method": "(§1) Biolayer interferometry binding experiments were performed using an Octet RED384 instrument, with all measurements made at 30° C. AHC biosensor probes were soaked in kinetics buffer (PBS pH 7.2+0.02% Tween-20, 0.1% BSA, 0.05% sodium azide) for 10 minutes, followed by baseline signal measurement in kinetics buffer for 60 seconds. […] For binding to hIL3-Rα, the antibody-loaded biosensor tips were dipped in binding buffer for 60 sec (baseline), followed by immersion in a solution containing dilutions of hIL3-Rα (10-0.16 μg/mL) for 300 sec (association), and subsequent immersion in kinetics buffer for 400 sec (dissociation). For binding to hIL5-Rα and GM-CSFRa, all steps were the same except the concentration of antigen was increased (50-1.56 μg/mL) and the dissociation step was decreased to 300 sec. The signal from a buffer only reference sample was subtracted, and all curves were fit with a 1:1 binding model to determine KD values."}, "[2]": {"target": "T2, human CD123 (IL3Rα) on cells (human, UniProt P26951 19-378)", "T2 construct": "whole, on cells; also called human IL3Rα expressed on 293 cells; AD293hIL3Rα", "assay": "flow cytometry with Alexa 647 labelled antibody on Ad293 cells expressing human IL3Ra, geometric mean", "method": "AD293 cells were maintained in DMEM (Dulbecco's Modified Eagle Medium) containing 10% heat-inactivated fetal bovine serum (FBS) and were cultured in a humidified atmosphere of 5% CO2 and at a temperature of 37° C. On the day of plating, cells were spun down at 1500 rpm for 3 minutes, counted, and resuspended to a final concentration of 0.3×10⁶ cells/ml. Two hundred μl of cells were plated to wells of 96 well microtiter plate. Plates were spun down at 1500 rpm for 3 minutes and flicked to remove media. One hundred μl of FACs buffer (PBS [Phosphate Buffer Saline]+2% FBS) was added to the wells. Plates were then spun again as above followed by addition of primary antibody in 100 μl of FACS buffer. […] Antibody concentration started at 12 μg/ml followed by six 1:3 dilutions (no antibody control was also run). Plates were incubated at 4° C. for 30 minutes. Following incubation plates were washed 3 times by spinning down at 1500 rpm for 3 minutes, flicked and 100 μl of FACS buffer were added. Following a final wash, 100 μl of FACS buffer containing live/dead DAPI (diamidino-2-phenylindole) stain was added to the plates. […] Flow data was analyzed in FlowJo software."}, "[3]": {"target": "T3, cynomolgus IL3Rα (CD123), sample in solution for biolayer interferometry (cynomolgus)", "T3 construct": "Soluble analyte in the Octet assay; construct not described; also called cynomolgus CD123 sample", "assay": "kinetic binding curves, antibody on the sensor, cyIL3Ra in solution; the sheet prints Temperature: 25 C"}, "[4]": {"target": "T4, human IL-5Rα (human, UniProt Q01344 21-342, limits assumed)", "T4 construct": "Soluble analyte in the Octet assay; construct not described; also called hIL5-Rα; human IL-5Ra sample", "T4 sequence (looked up)": "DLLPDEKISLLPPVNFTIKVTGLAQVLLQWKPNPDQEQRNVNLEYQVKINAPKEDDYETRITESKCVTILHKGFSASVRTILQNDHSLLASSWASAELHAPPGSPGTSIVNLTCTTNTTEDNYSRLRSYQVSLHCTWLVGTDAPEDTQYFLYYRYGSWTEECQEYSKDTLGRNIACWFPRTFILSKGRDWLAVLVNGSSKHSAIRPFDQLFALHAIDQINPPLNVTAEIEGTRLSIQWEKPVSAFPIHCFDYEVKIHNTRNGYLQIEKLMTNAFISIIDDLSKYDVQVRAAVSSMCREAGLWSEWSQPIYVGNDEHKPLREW", "assay": "biolayer interferometry, HT12-GL on the sensor, Sample ID: hIL5Ra-his in solution", "method": "as §1"}},
  "data": [
    {"binder": "HT12-GL antibody (antibody, human IgG1, kappa, V domains shown, elsewhere unlabeled with a secondary antibody; also called HT12-GL mAb; CD123 mAb) VH: EVQLLESGGGLVQPGGSLRLSCAASGFTFNIYAMTWVRQAPGKGLEWVSGISAGGDSTYYADSVKGRFTISRDNSKNTLYLQMNSLRAEDTAVYYCAKDRGYYYGMDVWGQGTTVTVSS VL: not shown", "values": [
      {"measurement": "Kd", "setting": "[1]", "result": 0.31, "unit": "nM"},
      {"measurement": "EC50 (read off the curve)", "setting": "[2]", "result": "~1", "unit": "µg/mL"},
      {"measurement": "Kd", "setting": "[3]", "result": 0.656, "unit": "nM"},
      {"measurement": "binding result", "setting": "[4]", "result": "no binding"}
    ]}
  ]
}
